For assay [1], the target named is HA of influenza B virus ca B/Brisbane/60/2008 (victoria) (influenza B virus B/Brisbane/60/2008). Put plainly: cell-based or functional assay.
The target of assay [2] is HA of influenza B virus ca B/Johannesburg/5/99 (yamagata) (influenza B virus B/Johannesburg/5/99). Put plainly: cell-based or functional assay.
Assay [3] has as its target HA of influenza B virus ca B/Ann Arbor/1/66 (influenza B virus B/Ann Arbor/1/66). Put plainly: cell-based or functional assay.
In assay [4] the target is HA of influenza B virus ca B/Beijing/243/97 (victoria) (influenza B virus B/Beijing/243/97). Put plainly: cell-based or functional assay.
In assay [5] the target is HA of influenza B virus B/Hong Kong/5/72 (influenza B virus B/Hong Kong/5/72). Put plainly: cell-based or functional assay.
The target of assay [6] is HA of influenza B virus B/Lee/40 (influenza B virus B/Lee/40) (UniProt P03460). The assay is described as follows: cell-based or functional assay.
Assay [7] has as its target HA of influenza B virus B/Malaysia/2506/2004 (victoria) (influenza B virus B/Malaysia/2506/2004). The assay is described as follows: cell-based or functional assay.
The target of assay [8] is HA of influenza B virus ca B/Yamanashi/166/98 (yamagata) (influenza B virus B/Yamanashi/166/98). The assay is described as follows: cell-based or functional assay.
Assay [9] deals with HA of influenza B virus ca B/Ann Arbor/2/94 (yamagata) (influenza B virus B/Ann Arbor/2/94). Put plainly: cell-based or functional assay.
Assay [10] has as its target HA of influenza B virus B/Hong Kong/330/2001 (victoria) (influenza B virus B/Hong Kong/330/2001). The assay is described as follows: cell-based or functional assay.
Assay [11] deals with recombinant HA derived from Victoria lineage strain B/BNE/08 (B/Brisbane/60/2008) (influenza B virus B/Brisbane/60/2008). The assay is described as follows: ELISA on coated recombinant HA, average of three experiments. (In an ELISA, binding on a coated surface is turned into a signal by an enzyme label.)
For assay [12], the target named is recombinant HA derived from Yamagata lineage strain B/FLA/06 (B/Florida/4/2006) (influenza B virus B/Florida/4/2006). Described as above.
The target in assay [13] is HA of influenza B virus B/Yamagata/16/88 (yamagata) (influenza B virus B/Yamagata/16/88). Put plainly: cell-based or functional assay.
The target of assay [14] is HA of influenza B virus B/Sichuan/379/99 (yamagata) (influenza B virus B/Sichuan/379/99). The assay is described as follows: cell-based or functional assay.
Assay [15] deals with HA of influenza B virus ca B/Victoria/504/2000 (yamagata) (influenza B virus B/Victoria/504/2000). Put plainly: cell-based or functional assay.
Assay [16] addresses HA of influenza B virus B/Ohio/1/2005 (victoria) (influenza B virus B/Ohio/1/2005). Put plainly: cell-based or functional assay.
Assay [17] addresses HA of influenza B virus ca B/Georgia/02/98 (yamagata) (influenza B virus B/Georgia/02/98). The assay is described as follows: cell-based or functional assay.
Assay [18] addresses HA of influenza B virus B/Shanghai/361/02 (yamagata) (influenza B virus B/Shanghai/361/02). Put plainly: cell-based or functional assay.
Assay [19] has as its target recombinant HA derived from influenza A subtype H9 (A/chicken/HK/G9/97 (H9N2)) (influenza A virus A/chicken/Hong Kong/G9/97 (H9N2)). The assay is described as follows: ELISA on coated recombinant H9 HA.
The target of assay [20] is recombinant HA derived from Victoria lineage strain B/BNE/08 (B/Brisbane/60/2008) (influenza B virus B/Brisbane/60/2008). The assay is described as follows: ELISA on coated recombinant HA, unpurified IgG.
For assay [21], the target named is recombinant HA derived from Yamagata lineage strain B/FLA/06 (B/Florida/4/2006) (influenza B virus B/Florida/4/2006). The assay is described as follows: ELISA on coated recombinant HA, unpurified IgG.

B1: FBD-56 (antibody, V domains shown)
VH: EVQLVESGGHLVQPGRSLRLSCAASGFTFEDYAMNWVRQAPGKGLEWVSVISWDSGRIGYADSVKGRFTISRDNAKNSSYLQMNSLRPEDTALYYCVRDMLAYYSDNSGKKYNVYGMDVWGQGTTVTVSS
VL: EIVLTQSPATLSLSPGERATLSCRASQSVSTFLAWYQQKPGQAPRLLMYDASNRATGIPARFSGSGSGTDFTLTISSLEPEDFAIYYCQQRSHWPPIFGQGTRLEIK
By EC50 is commonly meant the concentration needed to bring the measured effect to its halfway point. In the case of B1, the Neutralization (Ave IC50 ug/ml) is 0.01 µg/mL in [1]; 0.021 µg/mL in assay [2]; 0.035 µg/mL in assay [3]; 0.016 µg/mL in [4]; 0.051 µg/mL in assay [5]; 0.004 µg/mL in assay [6]. Besides, the Neutralization (Ave IC50 ug/ml) in assay [7] was 0.058 µg/mL; in [8], 0.133 µg/mL; in [9], 1.25 µg/mL; in assay [10] it was 0.038 µg/mL. The EC50 worked out at 0.03 µg/mL in assay [11] and 0.024 µg/mL in assay [12].

B2: FBD-94 (antibody, V domains shown)
VH: EVQLVESGGGLVQPGRSLRLSCAVSGFIFEDYAINWVRQAPGKGLEWVSIISWDSGRIGYADSVRGRFTISRDNAKNSSFLQMNSLRPEDTAVYYCVKDMLAYYYDGSGIRYNLYGMDVWGQGTTVTVSS
VL: EIVLTQSPATLSLSPGERATLSCRASRSITTFLAWYQQKPGQAPRLLIYDASNRATGVPARFSGSGSGTDFTLTINSLEPDDFAIYYCQQRDHWPPIFGQGTRLEIK
For B2, the Hemagglutination Inhibition Titer in assay [1] came out at 4 nM; in assay [2], 10 nM; in assay [3] it was 10 nM; in assay [13], 250 nM; in [14], 5 nM; in [4] it was 10 nM. Also, the Hemagglutination Inhibition Titer came to 3 nM in assay [5]; 1 nM in assay [6]; 10 nM in assay [7]; 10 nM in [8]; 5 nM in assay [9]; 8 nM in assay [15]. Further, the Hemagglutination Inhibition Titer turned out to be 10 nM in assay [10], 10 nM in [16], 8 nM in [17] and 0 nM in [18]. The Neutralization (Ave IC50 ug/ml) in assay [1] is 0.006 µg/mL; in [2], 0.012 µg/mL; in assay [3] it was 0.014 µg/mL; in assay [4], 0.005 µg/mL; in assay [5] it was 0.017 µg/mL; in assay [6], 0.009 µg/mL. For the same molecule, the Neutralization (Ave IC50 ug/ml) in assay [7] worked out at 0.023 µg/mL; in assay [8] it was 0.012 µg/mL; in assay [9], 0.891 µg/mL; in assay [10], 0.021 µg/mL. For the same molecule, the EC50 stood at 0.016 µg/mL in assay [11] and 0.013 µg/mL in assay [12].

B3: FBC-39 (antibody, V domains shown)
VH: EVQLVVSGGGLVKPGGSLRLSCAASGLSFLNAWMSWVRQAPGKGLEWVGRIKSNTDGGTTDYAAPVKGRFSISRDDSKNMLFLHMSSLRTEDTAVYYCATDGPYSDDFRSGYAARYRYFGMDVWGQGTTVTVSS
VL: DIQMTQSPSSVSASVGDRVTITCRASQDISTWLAWYQQKPGKAPKLLIYAASSLQSGVPSRFSGSGSGTDFTLTISSLQPEDFATYFCQQANSFPPTFGQGTKLEIK
Take B3: the EC50 came to 6.2 µg/mL in assay [19]; 0.186 µg/mL in assay [20]; 0.022 µg/mL in [21]; 0.048 µg/mL in assay [11]; 0.02 µg/mL in assay [12]. The Hemagglutination Inhibition Titer in [1] was found to be 20 nM; in assay [2], 18 nM; in assay [3] it was 6 nM; in [13], 11 nM; in assay [14] it was 10 nM; in [4], 14 nM. Besides, the Hemagglutination Inhibition Titer in [5] was found to be 8 nM; in assay [6] it was 5 nM; in [7] it was 20 nM; in assay [8] it was 13 nM; in [9] it was 6 nM; in assay [15], 16 nM. For the same molecule, the Hemagglutination Inhibition Titer came to 16 nM in assay [10], 24 nM in [16], 16 nM in assay [17] and 16 nM in [18]. In addition, the Neutralization (Ave IC50 ug/ml) in [1] turned out to be 0.238 µg/mL; in assay [2], 0.304 µg/mL; in assay [3] it was 0.061 µg/mL; in assay [14] it was 0.034 µg/mL; in assay [4] it was 0.218 µg/mL; in assay [5], 0.026 µg/mL. The Neutralization (Ave IC50 ug/ml) came to 0.021 µg/mL in [6]; 0.079 µg/mL in [7]; 0.039 µg/mL in assay [8]; 0.027 µg/mL in assay [9]; 0.142 µg/mL in assay [10].

B4: FBC-39 LTL (antibody, V domains shown)
VH: EVQLVESGGGLVKPGGSLRLSCAASGLTFLNAWMSWVRQAPGKGLEWVGRIKSNTDGGTTDYAAPVKGRFTISRDDSKNTLYLQMSSLKTEDTAVYYCTTDGPYSDDFRSGYAARYRYFGMDVWGQGTTVTVSS
VL: DIQMTQSPSSVSASVGDRVTITCRASQDISTWLAWYQQKPGKAPKLLIYAASSLQSGVPSRFSGSGSGTDFTLTISSLQPEDFATYYCQQANSFPPTFGQGTKLEIK
Take B4: the figures for the EC50 in [19], in [20] and in [21] were 6.3 µg/mL, 0.114 µg/mL and 0.017 µg/mL, respectively. In addition, the Neutralization (Ave IC50 ug/ml) was determined as 0.151 µg/mL in assay [1]; 0.023 µg/mL in assay [3]; 0.023 µg/mL in [14]; 0.152 µg/mL in assay [4]; 0.018 µg/mL in assay [5]; 0.01 µg/mL in assay [6]. For the same molecule, the Neutralization (Ave IC50 ug/ml) in assay [7] is 0.076 µg/mL; in [8], 0.01 µg/mL; in [9], 0.023 µg/mL; in assay [10], 0.084 µg/mL.

B5: FBC-39 FTL (antibody, V domains shown)
VH: EVQLVESGGGLVKPGGSLRLSCAASGFTFLNAWMSWVRQAPGKGLEWVGRIKSNTDGGTTDYAAPVKGRFTISRDDSKNTLYLQMSSLKTEDTAVYYCTTDGPYSDDFRSGYAARYRYFGMDVWGQGTTVTVSS
VL: DIQMTQSPSSVSASVGDRVTITCRASQDISTWLAWYQQKPGKAPKLLIYAASSLQSGVPSRFSGSGSGTDFTLTISSLQPEDFATYYCQQANSFPPTFGQGTKLEIK
For the molecule B5, the figures for the EC50 in [19], in assay [20] and in assay [21] were 46.1 µg/mL, 0.118 µg/mL and 0.017 µg/mL, respectively. Further, the Neutralization (Ave IC50 ug/ml) in [1] came out at 0.098 µg/mL; in assay [3] it was 0.026 µg/mL; in [14], 0.023 µg/mL; in [4], 0.134 µg/mL; in assay [5] it was 0.022 µg/mL; in [6], 0.013 µg/mL. In addition, the Neutralization (Ave IC50 ug/ml) was 0.074 µg/mL in assay [7], 0.007 µg/mL in assay [8], 0.023 µg/mL in assay [9] and 0.121 µg/mL in assay [10].

For the origin of these results see patent US20250263470A1.
